Laboratory results published in US20260217779A1.

Assays:
Assay in all cases: cell-based or functional assay
[1] = biological target: hCXCL10R75A.0015-G1T4k.one//VHn-G1T4h.one.H435R (human) [IgG part: P01857]
[2] = biological target: hCXCL10R75A-G1T4k.one//VHn-G1T4h.one.H435R (human) [IgG part: P01857]
[3] = biological target: hCXCL10R75A.0009-G1T4k.one//VHn-G1T4h.one.H435R (human) [IgG part: P01857]
[4] = biological target: hCXCL10R75A.0017-G1T4k.one//VHn-G1T4h.one.H435R (human) [IgG part: P01857]
[5] = biological target: hCXCL10R75A.0049-G1T4k.one//VHn-G1T4h.one.H435R (human) [IgG part: P01857]
[6] = biological target: hCXCL10R75A.0029-G1T4k.one//VHn-G1T4h.one.H435R (human) [IgG part: P01857]
[7] = biological target: hCXCL10R75A.0038-G1T4k.one//VHn-G1T4h.one.H435R (human) [IgG part: P01857]
[8] = biological target: hCXCL10R75A.0027-G1T4k.one//VHn-G1T4h.one.H435R (human) [IgG part: P01857]
[9] = biological target: hCXCL10R75A.0054-G1T4k.one//VHn-G1T4h.one.H435R (human) [IgG part: P01857]
[10] = biological target: hCXCL10R75A.0004-G1T4k.one//VHn-G1T4h.one.H435R (human) [IgG part: P01857]
[11] = biological target: hCXCL10R75A.0010-G1T4k.one//VHn-G1T4h.one.H435R (human) [IgG part: P01857]
[12] = biological target: hCXCL10R75A.0005-G1T4k.one//VHn-G1T4h.one.H435R (human) [IgG part: P01857]
[13] = biological target: hCXCL10R75A.0031-G1T4k.one//VHn-G1T4h.one.H435R (human) [IgG part: P01857]
[14] = biological target: hCXCL10R75A.0042-G1T4k.one//VHn-G1T4h.one.H435R (human) [IgG part: P01857]
[15] = biological target: hCXCL10R75A.0025-G1T4k.one//VHn-G1T4h.one.H435R (human) [IgG part: P01857]
Chain of hCXCL10R75A.0025-G1T4k.one//VHn-G1T4h.one.H435R (human) [IgG part: P01857] (P01857 other isoform, or with tags, fused parts or gaps H435R H435R, chain 1 of 2): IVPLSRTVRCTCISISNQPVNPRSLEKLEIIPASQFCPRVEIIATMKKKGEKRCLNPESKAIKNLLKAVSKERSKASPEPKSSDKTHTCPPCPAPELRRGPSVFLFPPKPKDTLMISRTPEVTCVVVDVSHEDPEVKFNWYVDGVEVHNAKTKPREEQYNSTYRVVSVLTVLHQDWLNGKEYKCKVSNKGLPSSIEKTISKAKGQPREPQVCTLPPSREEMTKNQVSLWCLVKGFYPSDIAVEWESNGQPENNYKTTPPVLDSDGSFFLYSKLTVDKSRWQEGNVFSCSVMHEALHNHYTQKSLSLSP
Chain of hCXCL10R75A.0025-G1T4k.one//VHn-G1T4h.one.H435R (human) [IgG part: P01857] (P01857 other isoform, or with tags, fused parts or gaps H435R H435R, chain 2 of 2): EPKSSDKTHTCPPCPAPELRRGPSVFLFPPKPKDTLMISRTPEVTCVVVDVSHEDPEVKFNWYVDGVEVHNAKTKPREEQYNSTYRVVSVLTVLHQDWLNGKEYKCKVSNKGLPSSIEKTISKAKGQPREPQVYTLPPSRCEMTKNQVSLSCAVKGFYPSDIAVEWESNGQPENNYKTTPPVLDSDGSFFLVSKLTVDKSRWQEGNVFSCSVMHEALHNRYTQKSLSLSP

[16] = biological target: hCXCL10R75A.0047-G1T4k.one//VHn-G1T4h.one.H435R (human) [IgG part: P01857]
Chain of hCXCL10R75A.0047-G1T4k.one//VHn-G1T4h.one.H435R (human) [IgG part: P01857] (P01857 other isoform, or with tags, fused parts or gaps H435R H435R, chain 1 of 2): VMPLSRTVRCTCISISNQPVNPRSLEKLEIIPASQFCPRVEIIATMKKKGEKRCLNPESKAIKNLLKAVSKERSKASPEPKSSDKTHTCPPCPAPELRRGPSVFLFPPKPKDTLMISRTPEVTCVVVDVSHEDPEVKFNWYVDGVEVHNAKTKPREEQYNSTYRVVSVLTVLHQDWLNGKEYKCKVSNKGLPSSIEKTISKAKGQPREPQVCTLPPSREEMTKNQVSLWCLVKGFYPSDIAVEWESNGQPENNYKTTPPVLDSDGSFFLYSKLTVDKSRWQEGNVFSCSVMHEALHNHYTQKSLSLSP
Chain of hCXCL10R75A.0047-G1T4k.one//VHn-G1T4h.one.H435R (human) [IgG part: P01857] (P01857 other isoform, or with tags, fused parts or gaps H435R H435R, chain 2 of 2): as the sequence (P01857 other isoform, or with tags, fused parts or gaps H435R H435R, chain 2 of 2) above

[17] = biological target: hCXCL10R75A.0044-G1T4k.one//VHn-G1T4h.one.H435R (human) [IgG part: P01857]
[18] = biological target: hCXCL10R75A.0007-G1T4k.one//VHn-G1T4h.one.H435R (human) [IgG part: P01857]
[19] = biological target: hCXCL10R75A.0041-G1T4k.one//VHn-G1T4h.one.H435R (human) [IgG part: P01857]
[20] = biological target: hCXCL10R75A.0016-G1T4k.one//VHn-G1T4h.one.H435R (human) [IgG part: P01857]
Chain of hCXCL10R75A.0016-G1T4k.one//VHn-G1T4h.one.H435R (human) [IgG part: P01857] (P01857 other isoform, or with tags, fused parts or gaps H435R H435R, chain 1 of 2): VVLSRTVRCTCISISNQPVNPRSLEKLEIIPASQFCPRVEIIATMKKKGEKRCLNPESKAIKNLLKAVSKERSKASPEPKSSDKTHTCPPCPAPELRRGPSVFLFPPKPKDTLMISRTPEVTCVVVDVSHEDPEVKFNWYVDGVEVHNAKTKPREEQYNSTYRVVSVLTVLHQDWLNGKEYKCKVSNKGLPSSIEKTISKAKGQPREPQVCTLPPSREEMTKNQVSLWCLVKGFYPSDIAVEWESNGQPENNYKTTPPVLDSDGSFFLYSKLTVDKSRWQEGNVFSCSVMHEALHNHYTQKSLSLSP
Chain of hCXCL10R75A.0016-G1T4k.one//VHn-G1T4h.one.H435R (human) [IgG part: P01857] (P01857 other isoform, or with tags, fused parts or gaps H435R H435R, chain 2 of 2): as the sequence (P01857 other isoform, or with tags, fused parts or gaps H435R H435R, chain 2 of 2) above

[21] = biological target: hCXCL10R75A.0034-G1T4k.one//VHn-G1T4h.one.H435R (human) [IgG part: P01857]
Chain of hCXCL10R75A.0034-G1T4k.one//VHn-G1T4h.one.H435R (human) [IgG part: P01857] (P01857 other isoform, or with tags, fused parts or gaps H435R H435R, chain 1 of 2): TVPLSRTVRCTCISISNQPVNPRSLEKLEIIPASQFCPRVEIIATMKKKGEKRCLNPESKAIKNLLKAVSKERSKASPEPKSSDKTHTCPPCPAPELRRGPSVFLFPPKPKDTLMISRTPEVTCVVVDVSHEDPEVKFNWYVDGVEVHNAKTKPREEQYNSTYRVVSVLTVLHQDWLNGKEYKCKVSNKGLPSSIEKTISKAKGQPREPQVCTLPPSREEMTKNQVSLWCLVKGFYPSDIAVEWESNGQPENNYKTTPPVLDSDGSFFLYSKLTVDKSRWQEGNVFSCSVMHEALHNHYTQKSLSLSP
Chain of hCXCL10R75A.0034-G1T4k.one//VHn-G1T4h.one.H435R (human) [IgG part: P01857] (P01857 other isoform, or with tags, fused parts or gaps H435R H435R, chain 2 of 2): as the sequence (P01857 other isoform, or with tags, fused parts or gaps H435R H435R, chain 2 of 2) above

[22] = biological target: hCXCL10R75A.0053-G1T4k.one//VHn-G1T4h.one.H435R (human) [IgG part: P01857]
[23] = biological target: hCXCL10R75A.0018-G1T4k.one//VHn-G1T4h.one.H435R (human) [IgG part: P01857]
[24] = biological target: hCXCL10R75A.0023-G1T4k.one//VHn-G1T4h.one.H435R (human) [IgG part: P01857]
[25] = biological target: hCXCL10R75A.0033-G1T4k.one//VHn-G1T4h.one.H435R (human) [IgG part: P01857]
[26] = biological target: hCXCL10R75A.0036-G1T4k.one//VHn-G1T4h.one.H435R (human) [IgG part: P01857]
[27] = biological target: hCXCL10R75A.0019-G1T4k.one//VHn-G1T4h.one.H435R (human) [IgG part: P01857]
Chain of hCXCL10R75A.0019-G1T4k.one//VHn-G1T4h.one.H435R (human) [IgG part: P01857] (P01857 other isoform, or with tags, fused parts or gaps H435R H435R, chain 1 of 2): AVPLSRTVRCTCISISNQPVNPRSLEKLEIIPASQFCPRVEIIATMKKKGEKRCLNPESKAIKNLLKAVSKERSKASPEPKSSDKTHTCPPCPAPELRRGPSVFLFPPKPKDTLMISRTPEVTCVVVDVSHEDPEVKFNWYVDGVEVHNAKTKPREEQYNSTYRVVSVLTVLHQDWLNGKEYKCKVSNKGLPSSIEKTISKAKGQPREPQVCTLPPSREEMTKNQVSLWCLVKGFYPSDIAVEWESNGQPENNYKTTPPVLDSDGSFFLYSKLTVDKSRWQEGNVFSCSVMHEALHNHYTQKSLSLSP
Chain of hCXCL10R75A.0019-G1T4k.one//VHn-G1T4h.one.H435R (human) [IgG part: P01857] (P01857 other isoform, or with tags, fused parts or gaps H435R H435R, chain 2 of 2): as the sequence (P01857 other isoform, or with tags, fused parts or gaps H435R H435R, chain 2 of 2) above

[28] = biological target: hCXCL10R75A.0001-G1T4k.one//VHn-G1T4h.one.H435R (human) [IgG part: P01857]
Chain of hCXCL10R75A.0001-G1T4k.one//VHn-G1T4h.one.H435R (human) [IgG part: P01857] (P01857 other isoform, or with tags, fused parts or gaps H435R H435R, chain 1 of 2): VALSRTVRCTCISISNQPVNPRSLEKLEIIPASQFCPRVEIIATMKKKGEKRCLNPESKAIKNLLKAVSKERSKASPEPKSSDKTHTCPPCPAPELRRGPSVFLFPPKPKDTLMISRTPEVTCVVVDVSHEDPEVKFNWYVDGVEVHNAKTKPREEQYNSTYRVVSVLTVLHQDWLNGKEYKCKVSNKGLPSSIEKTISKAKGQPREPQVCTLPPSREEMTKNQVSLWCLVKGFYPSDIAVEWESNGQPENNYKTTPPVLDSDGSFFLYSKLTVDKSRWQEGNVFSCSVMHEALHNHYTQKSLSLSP
Chain of hCXCL10R75A.0001-G1T4k.one//VHn-G1T4h.one.H435R (human) [IgG part: P01857] (P01857 other isoform, or with tags, fused parts or gaps H435R H435R, chain 2 of 2): as the sequence (P01857 other isoform, or with tags, fused parts or gaps H435R H435R, chain 2 of 2) above

Chain of human dipeptidyl peptidase IV (human DPPIV, hDPPIV) (Biolegend, 764102) (P27487 29-766 limits assumed): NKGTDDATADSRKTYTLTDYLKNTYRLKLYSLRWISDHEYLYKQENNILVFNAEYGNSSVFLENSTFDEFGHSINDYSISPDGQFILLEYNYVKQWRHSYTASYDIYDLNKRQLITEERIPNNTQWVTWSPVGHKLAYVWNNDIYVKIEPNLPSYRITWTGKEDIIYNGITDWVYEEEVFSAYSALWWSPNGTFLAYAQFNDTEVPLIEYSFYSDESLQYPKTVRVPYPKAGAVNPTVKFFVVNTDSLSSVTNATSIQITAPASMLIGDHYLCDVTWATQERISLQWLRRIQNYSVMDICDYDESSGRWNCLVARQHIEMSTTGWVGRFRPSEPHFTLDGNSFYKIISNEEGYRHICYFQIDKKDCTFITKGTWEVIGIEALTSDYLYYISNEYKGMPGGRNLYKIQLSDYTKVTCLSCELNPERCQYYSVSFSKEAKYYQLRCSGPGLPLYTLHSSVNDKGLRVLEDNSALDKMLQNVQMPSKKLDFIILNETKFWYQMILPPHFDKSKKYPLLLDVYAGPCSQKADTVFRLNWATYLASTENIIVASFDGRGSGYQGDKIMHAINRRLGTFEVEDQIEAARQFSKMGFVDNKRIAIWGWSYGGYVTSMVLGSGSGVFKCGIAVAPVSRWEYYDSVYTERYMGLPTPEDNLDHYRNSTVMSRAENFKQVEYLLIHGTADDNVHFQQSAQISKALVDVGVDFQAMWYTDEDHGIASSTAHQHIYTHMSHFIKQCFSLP
Chain of hCXCL10R75A.0009-G1T4k.one//VHn-G1T4h.one.H435R (human) [IgG part: P01857] (P01857 other isoform, or with tags, fused parts or gaps H435R H435R, chain 1 of 2): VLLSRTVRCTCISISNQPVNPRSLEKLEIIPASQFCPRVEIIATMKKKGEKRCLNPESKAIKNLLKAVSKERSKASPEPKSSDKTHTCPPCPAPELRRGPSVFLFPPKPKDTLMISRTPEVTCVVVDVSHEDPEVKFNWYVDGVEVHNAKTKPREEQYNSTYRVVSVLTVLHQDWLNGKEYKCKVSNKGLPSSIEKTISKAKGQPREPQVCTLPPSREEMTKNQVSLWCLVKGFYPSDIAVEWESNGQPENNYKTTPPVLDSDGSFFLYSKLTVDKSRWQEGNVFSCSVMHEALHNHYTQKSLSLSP
Chain of hCXCL10R75A.0009-G1T4k.one//VHn-G1T4h.one.H435R (human) [IgG part: P01857] (P01857 other isoform, or with tags, fused parts or gaps H435R H435R, chain 2 of 2): as the sequence (P01857 other isoform, or with tags, fused parts or gaps H435R H435R, chain 2 of 2) above

mass change after hDPPIV treatment (LC/MS) [1]: 0 Da
mass change after hDPPIV treatment (LC/MS) [2]: 195 Da
mass change after hDPPIV treatment (LC/MS) [3]: 1 Da
mass change after hDPPIV treatment (LC/MS) [4]: 0 Da
mass change after hDPPIV treatment (LC/MS) [5]: 1 Da
mass change after hDPPIV treatment (LC/MS) [6]: -1 Da
mass change after hDPPIV treatment (LC/MS) [7]: 0 Da
mass change after hDPPIV treatment (LC/MS) [8]: 1 Da
mass change after hDPPIV treatment (LC/MS) [9]: 0 Da
mass change after hDPPIV treatment (LC/MS) [10]: 1 Da
mass change after hDPPIV treatment (LC/MS) [11]: -1 Da
mass change after hDPPIV treatment (LC/MS) [12]: -1 Da
mass change after hDPPIV treatment (LC/MS) [13]: 0 Da
mass change after hDPPIV treatment (LC/MS) [14]: 1 Da
mass change after hDPPIV treatment (LC/MS) [15]: 0 Da
mass change after hDPPIV treatment (LC/MS) [16]: 0 Da
mass change after hDPPIV treatment (LC/MS) [17]: 0 Da
mass change after hDPPIV treatment (LC/MS) [18]: 1 Da
mass change after hDPPIV treatment (LC/MS) [19]: 0 Da
mass change after hDPPIV treatment (LC/MS) [20]: 1 Da
mass change after hDPPIV treatment (LC/MS) [21]: 0 Da
mass change after hDPPIV treatment (LC/MS) [22]: -2 Da
mass change after hDPPIV treatment (LC/MS) [23]: 0 Da
mass change after hDPPIV treatment (LC/MS) [24]: 1 Da
mass change after hDPPIV treatment (LC/MS) [25]: 2 Da
mass change after hDPPIV treatment (LC/MS) [26]: 0 Da
mass change after hDPPIV treatment (LC/MS) [27]: 1 Da
mass change after hDPPIV treatment (LC/MS) [28]: 171 Da
Substance: human dipeptidyl peptidase IV (human DPPIV, hDPPIV) (Biolegend, 764102) (from UniProt P27487 29-766) (enzyme)
